Data from patent US20090176209A1.

Biological target: scArc-Vκ(E5)-HA fusion protein (Vκ(E5) fused to the C-terminus of scArc; pIE3AVκ(E5) series constructs) (phage P22)
Assay: emulsion expression of the pIE3a^4AVκ(E5)-derived template; capture on 3F10-coated PCR tubes; quantitative PCR

percent of the total input genetic element DNA recovered in complex with the fusion protein on the mAb-coated surface: > 23%
Substance: αHA rat mAb 3F10 (Roche), High Affinity anti-HA monoclonal antibody
